Reference: publication PMC4749557, “ETO family protein Mtgr1 mediates Prdm14 functions in stem cell maintenance and primordial germ cell formation” (eLife, 2015)
Substitutions are numbered along the chain they refer to. Names and notes keep the numbering of the source.

T1: recombinant Prdm14 pre-SET+SET domains (residues 184–373) (mouse, UniProt E9Q3T6 184-373, biotin (biotin-acceptor tag))
T1 construct: gene assembled from synthetic oligonucleotides in the pHBT vector; a TEV site lies between the tags and the protein; also called mouse Prdm14; source: E. coli BL21 (DE3) with pBirACm and 50 μM biotin, purified (Ni-Sepharose); not shown: biotin-acceptor tag, N-terminal, kept
T1 sequence (looked up): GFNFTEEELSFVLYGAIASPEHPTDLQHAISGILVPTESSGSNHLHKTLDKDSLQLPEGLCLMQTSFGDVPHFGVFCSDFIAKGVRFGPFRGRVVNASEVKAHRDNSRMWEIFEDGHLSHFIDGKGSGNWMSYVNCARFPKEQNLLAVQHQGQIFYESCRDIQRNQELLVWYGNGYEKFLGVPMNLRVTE

T2: recombinant Prdm14 (residues 184–373) E294K (mouse, UniProt E9Q3T6 184-373, E294K, biotin (biotin-acceptor tag))
T2 construct: also called E294K Prdm14; source: E. coli BL21 (DE3) with pBirACm and 50 μM biotin, purified (Ni-Sepharose); not shown: biotin-acceptor tag, N-terminal, kept
T2 sequence (looked up): T1 sequence (looked up) with E111K

B1: Mb(hPRDM14_S4) displayed on the yeast surface (designed binder)
chain: VSSVPTKLEVVAATPTSLLISWDAPAVTVDLYFITYGETGGNSPVQKFTVPGSKSTATISGLKPGVDYTITVYAQYYYRGWYVGSPISINYRT
B2: recombinant Mtgr1 NHR1 domain (residues 98–206) (domain or fragment, mouse, UniProt O70374 98-206, looked up)
chain: LPATCGARQLSKLKRFLTTLQQFGNDISPEIGEKVRTLVLALVNSTVTIEEFHCKLQEATNFPLRPFVIPFLKANLPLLQRELLHCARAAKQTPSQYLAQHEKLLLNTS
modifications: biotin (biotin-acceptor tag)
notes: Mtgr1 (Cbfa2t2), residues 98–206 (NHR1/TAFH domain), with H200K from a cloning artifact; pHBT vector; a TEV site lies between the tags and the protein; also called wt Mtgr1; source: E. coli BL21 (DE3) with pBirACm and 50 μM biotin, purified (Ni-Sepharose); not shown: biotin-acceptor tag, N-terminal, kept
B3: recombinant Mtgr1 NHR1 domain (residues 98–206) K109E (domain or fragment, mouse, UniProt O70374 98-206, looked up)
chain: B2 chain with K12E
modifications: biotin (biotin-acceptor tag)
notes: Mtgr1 (Cbfa2t2), residues 98–206, K109E on the pHBT construct that carries H200K; also called Mtgr1(K109E); source: E. coli BL21 (DE3) with pBirACm and 50 μM biotin, purified (Ni-Sepharose); not shown: biotin-acceptor tag, N-terminal, kept
B4: human PRDM14 (residues 238–487) (domain or fragment, UniProt Q9GZV8 238-487, looked up)
chain: LPQTLDKDSLQLPEGLCLMQTVFGEVPHFGVFCSSFIAKGVRFGPFQGKVVNASEVKTYGDNSVMWEIFEDGHLSHFIDGKGGTGNWMSYVNCARFPKEQNLVAVQCQGHIFYESCKEIHQNQELLVWYGDCYEKFLDIPVSLQVTEPGKQPSGPSEESAEGYRCERCGKVFTYKYYRDKHLKYTPCVDKGDRKFPCSLCKRSFEKRDRLRIHILHVHEKHRPHKCSTCGKCFSQSSSLNKHMRVHSGDR
modifications: biotin (biotin-acceptor tag)
notes: vector based on p28BIOH-LIC; expression vector from the Structural Genomics Consortium; also called hPRDM14; source: E. coli BL21 (DE3) with pBirACm and 50 μM biotin, purified (Ni-Sepharose); not shown: biotin-acceptor tag, N-terminal, kept

Assays:
[1] = molecular target: B4; test: yeast surface display; KD of monobody clones displayed on yeast for hPRDM14; details: one partner purified
[2] = molecular target: T1, recombinant Prdm14 pre-SET+SET domains …; test: bead-based binding assay; biotinylated Prdm14 immobilised on streptavidin M280 beads, biotinylated Mtgr1 (NHR1) in solution, detected with SAV-Dylight650 by flow cytometer; 50 mM Tris–HCl, 150 mM NaCl, pH 8, 1 mg/ml BSA, 1 mM EDTA, 0.1 mM DTT; 1:1 model; details: both partners purified
[3] = molecular target: T2, recombinant Prdm14 (residues 184–373) …; test: bead-based binding assay; biotinylated Mtgr1 (NHR1) immobilised on streptavidin M280 beads, biotinylated Prdm14 in solution, detected with SAV-Dylight650 by flow cytometer; 50 mM Tris–HCl, 150 mM NaCl, pH 8, 1 mg/ml BSA, 1 mM EDTA, 0.1 mM DTT; 1:1 model; details: both partners purified
[4] = molecular target: B1; test: yeast surface display; monobodies on the yeast surface with 50 nM of hPRDM14 or a homologue; details: one partner purified

Binder: B1
- Kd [1]: < 100 nM

Binder: B2
- binding result [2]: binds

Binder: B3
- binding result [3]: binds

Binder: B4
- fold stronger binding than hPRDM6 and hPRDM12 [4]: ≥ 5 fold
